In publication PMC12368637:

Legend:
[1] = molecular target: Human cystatin C (human) (UniProt P01034); experiment: ITC; 300 uM HSA in the syringe, 30 uM HCC in the cell; PBS; 25.2 °C; MicroCal PEAQ-ITC; single set of identical sites model
[2] = molecular target: Human serum albumin (human) (UniProt P02768); experiment: NMR (1H-15N HSQC and 15N relaxation); 15N-labelled V57G HCC with and without equimolar HSA (around 0.3 mM each); PBS, 90%/10% H2O/D2O, pH 7.0; 298 K

| Kd [1] | dH [1] | stoichiometry N [1] | percent of V57G HCC that interacted with HSA [2] | Substance |
| --- | --- | --- | --- | --- |
| 1150 nM | 1.88 kcal/mol | 0.642 |  | Human serum albumin (from UniProt P02768 25-609) (natural protein) |
|  |  |  | 4% | V57G mutant of human cystatin C (from UniProt P01034 27-146) (natural protein) |
